This is an account of results in patent publication US20200405610A1, “COSMETIC COMPOSITION” (Shaanxi Huikang Bio-Tech Co., Ltd., priority 2016, published 2020).

A short description of the data set: Isoelectric point of the pentapeptide. The class given is physicochemical.

“Tyr-Gly-Phe-Gly-Gly (YGFGG; OGP(10-14); listed as Homo sapiens)” yielded an isoelectric point of 5.52.
